The nature of this data set: protein stability index of a GFP-peptide fusion (GPS, HEK-293T) (PSI 1-6); higher = more stable.
[1] abbreviates: treatment: DMSO, c terminus: a fixed tail appended.
Setting [2] is: treatment: MLN4924 1 uM, 8 h, c terminus: a fixed tail appended.
The mark [3] stands for this setting: treatment: DMSO, c terminus: native.
Where [4] appears, read: treatment: MLN4924 1 uM, 8 h, c terminus: native.

± gives the standard deviation.
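Further: 24-mer peptide tiles fused after GFP, lentivirally expressed, FACS-sorted into six equal bins by GFP/DsRed ratio, decoded by Illumina sequencing, PSI is the read-weighted mean bin number.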

Turning to SVDDIESETGSTGALETRSLKDHK [C2CD2L], the protein stability index runs as follows: under setting [1], 5.52 ± 0.3; under setting [2], 5.43 ± 0.27.
In the case of SVIEPVQESSFRSRKIAVEDENDL [MIA2], the protein stability index came to 5.05 ± 0.49 under setting [1] and 5.21 ± 0.49 under setting [2].
The matching figures for SVRGYMMSKQRERQLRRRALHPER [RETREG3]: 3.43 ± 0.047 and 3.73 ± 0.31.
In the same order, the values of SWSAGLHNRYTENSLRGVILDIHF [FUT8] are 2.88 ± 0.67 and 2.86 ± 0.73.
On to SYQDWQQNLYFNCSSPGVQACSLP [TSPAN10], for which the protein stability index reads like this: under setting [1], 2.32 ± 0.28; under setting [2], 2.62 ± 0.2.
TCEDDEDEELGGSSRVPVGGGPEA [ZBTB22]: the protein stability index by setting is: under setting [1], 5.49 ± 0.14; under setting [2], 5.38 ± 0.61.
The matching figures for TCGVCALELGSTEVLLDHLKAHAE [PLAGL1]: 2.78 ± 0.46 and 2.78 ± 0.42.
Turning to TCLMMDMKACQEDDVRLLCHLTPS [INTS3], the protein stability index worked out at 2.69 ± 0.17 under setting [1] and 2.73 ± 0.33 under setting [2].
In the same order, the values of TDCGKAFLKKSQLTEHKRIHTGKK [ZNF649] are 3.62 ± 0.5 and 3.48 ± 0.42.
In the case of TDDRIVVPQRGRSTRVPVASVLI [SPNS1], the protein stability index is, setting by setting: under setting [3], 2.64 ± 0.13; under setting [4], 2.82 ± 0.42.
TDRGNDNWLIKYDCPMDSSSSRDT [PI4K2A]: the protein stability index by setting is: under setting [1], 4.44 ± 0.2; under setting [2], 4.42 ± 0.075.
The matching figures for TEALILQLFSQIGPCKNCKMIMDT [TIA1]: 2.75 ± 0.37 and 2.53 ± 0.41.
The matching figures for TEMAASSQGNFEGNFESLDLAEFA [FUNDC2]: 5.21 ± 0.42 and 5.1 ± 0.44.
In the same order, the values of TGEASENGLEDIDRILERIEDSTG [TCF25] are 5.47 ± 0.074 and 5.46 ± 0.29.
With TGELVGPFVSAMPTPMPHNKGTRF [ZBED2], the protein stability index runs as follows: under setting [1], 3.64 ± 0.11; under setting [2], 3.79 ± 0.23.
In the same order, the values of TGLELIAEESNPPLQDFPNSISSD [MIA2] are 5.2 ± 0.097 and 5.33 ± 0.25.
The matching figures for TIRLNISDVNDNAPRFNQQLYTAY [PCDHGC5]: 2.41 ± 0.18 and 2.37 ± 0.2.
The matching figures for TISEFILSEDYNKMTPVKNYQAHQ [WDFY2]: 2.66 ± 0.16 and 2.78 ± 0.14.
As to TITIGMFPAVTVEVKSSIAGSSTW [SLC29A1], the protein stability index reads like this: under setting [1], 2.58 ± 0.6; under setting [2], 2.4 ± 0.5.
Consider TKDPDVAFHGLSLGLSLTNGLALG [PSD2], for which the protein stability index runs as follows: under setting [1], 2.46 ± 0.21; under setting [2], 2.43 ± 0.25.
In the same order, the values of TKEEGLALAREFSCPFFETSAAYR [RIT1] are 3.15 ± 0.29 and 3.13 ± 0.15.
Turning to TKELDQWIEQLNECKQLSESQVKS [PPP2CA], the protein stability index under setting [1] was found to be 4.71 ± 0.094 and the protein stability index under setting [2] amounted to 4.69 ± 0.12.
With TLYRPEEGYCQAQAPIAAVLLMHM [TBC1D10A], the protein stability index came to 2.52 ± 0.42 under setting [1] and 2.43 ± 0.45 under setting [2].
In the case of TMDNKKGRRYEAVKWMVVFAIGVC [CLCN6], the protein stability index by setting is: under setting [1], 2.58 ± 0.35; under setting [2], 2.64 ± 0.82.
In the same order, the values of TNLTWDQVITLDQVLDEVIPIHGK [TENT5D] are 2.47 ± 0.16 and 2.61 ± 0.3.
In the same order, the values of TPTPFFHTFAGDDCQAGLNFADED [WAS] are 4.86 ± 0.25 and 5 ± 0.07.
The matching figures for TPYLKETLNSIWNVEDHINPKLPN [POMT2]: 3.37 ± 0.28 and 3.45 ± 0.2.
Consider TQGLPWRFEELLTCSHWPSFFPS [TEX19], for which the protein stability index turned out to be 2.78 ± 0.46 under setting [3] and 2.24 ± 0.87 under setting [4].
Turning to TQRQYKEDESQSEEENDYRNLDAS [CEP70], the protein stability index turned out to be 5.41 ± 0.25 under setting [1] and 5.51 ± 0.6 under setting [2].
The matching figures for TSFALERNLRTQQEIEDKMKGFSF [C8orf76]: 3.54 ± 0.19 and 3.53 ± 0.2.
The matching figures for TSVEEESFGPQPISRLEQCGINAN [RAD51]: 4.63 ± 0.39 and 4.63 ± 0.18.
In the same order, the values of TTIEDEDAKARKQEIIKTTEQLIE [CAMK2B] are 5.14 ± 0.22 and 5.32 ± 0.24.
For the sequence TTPPGHGTLDNSKSMKPYNYCSAY [NEUROD6], the protein stability index came out at 3.27 ± 0.18 under setting [1] and 3.25 ± 0.17 under setting [2].
The matching figures for TTSEEAVGGATLAQTTSEAAMEGA [HDAC6]: 5.59 ± 0.34 and 5.43 ± 0.31.
The matching figures for TTTRHKRTANPSKTIDLGAAAHYT [CLINT1]: 3.94 ± 0.2 and 4.06 ± 0.16.
In the same order, the values of TVARPVFTEYQASAFGNVKLVVHD [RHOBTB3] are 3.06 ± 0.33 and 3.17 ± 0.23.
Consider TVFRAILDYYKTGIIRCPDGISIP [BTBD10], for which the protein stability index was found to be 3.01 ± 0.24 under setting [1] and 2.56 ± 0.43 under setting [2].
On to TVSSPIPYTPSPSSSRPISPGLSY [CCDC6], for which the protein stability index runs as follows: under setting [1], 3.58 ± 0.1; under setting [2], 3.61 ± 0.45.
In the same order, the values of TYRIRIEMSKDALPEKACQLDSRY [FBXO3] are 2.37 ± 0.12 and 2.57 ± 0.35.
On to VAGNPQDTRLRYSFFVPRPTPSTP [ADAMTS4], for which the protein stability index under setting [1] amounted to 3.11 ± 0.36 and the protein stability index under setting [2] is 3.18 ± 0.25.
The matching figures for VAKLESECLKRQGQREPGSLSRNN [FBXO34]: 4.77 ± 0.098 and 4.75 ± 0.35.
In the case of VAKLQESQPGNAVIDKETIDLLAF [SDE2], the protein stability index under setting [1] stood at 2.98 ± 0.48 and the protein stability index under setting [2] was 3.29 ± 0.37.
The matching figures for VATNSAGTRYSAPANLYVRELREV [PTPRD]: 3.05 ± 0.32 and 3.45 ± 0.37.
The matching figures for VAWNGPRMGDADYLAAWHRLVLPI [HDAC6]: 2.52 ± 0.52 and 2.26 ± 0.25.
The matching figures for VCESMKEQLLVLVEWAKYIPAFCE [HNF4A]: 2.51 ± 0.38 and 2.34 ± 0.38.
Regarding VCLMGHERRQTLNLISLLALRVLA [TENT5C], the protein stability index by setting is: under setting [1], 2.72 ± 0.56; under setting [2], 2.5 ± 0.37.
In the case of VCVGSDVTSIHKYMVRRYFNKPSR [MYORG], the protein stability index reads like this: under setting [1], 2.37 ± 0.2; under setting [2], 2.34 ± 0.18.
The matching figures for VDGKTIKAQIWDTAGQERYRAITS [RAB11A]: 3.34 ± 0.19 and 3.68 ± 0.22.
In the same order, the values of VDNISTLDSEIKKNSDGMEAAGVQ [CD207] are 5.4 ± 0.37 and 5.49 ± 0.23.
In the same order, the values of VDPIGHVYIFATCLGLSYDGLLGD [MAGEA6] are 3.17 ± 0.45 and 3.1 ± 0.29.
VEGFRITLVDESDLYNWEVAIFGP [UBE2R2]: the protein stability index is, setting by setting: under setting [1], 2.84 ± 0.79; under setting [2], 2.52 ± 0.68.
In the same order, the values of VEIVKSDFHKPFLGGFRHKVTGVE [IQUB] are 2.17 ± 0.23 and 2.5 ± 0.39.
